Test results as given in patent US20180030149A1 (AVEO PHARMACEUTICALS, published 2018).
Read-outs that look alike come from different tables or passages of the source.

Columns and labels:
[1] = biological target: T1, recombinant human ErbB3/Fc fusion protein (human, UniProt P21860 20-643); assay: ECL (MSD) competition: rhErbB3/Fc coated on the plate, antibody dilutions, then NRG1-β1 at 0.25 µg/ml; bound NRG1-β1 detected
T1 construct: Bought (R&D Systems, Cat. No. 348-RB); the NRG1-α1 assay names Cat. No. 4518-RB instead; also called rhErbB3-Fc; rhErbB3/Fc; not shown: Fc portion of the bought fusion protein
Protocol: (§1) Multi-array 96-well standard binding plates (Meso Scale Discovery, Cat. No. L15XA-3) were coated with 50 μl of 0.5 μg/mL rhErbB3/Fc (R&D systems, Cat. No. 348-RB) in PBS (Invitrogen, Cat. No. 14040-133) for one hour at room temperature with no agitation. The plates then were washed three times with PBS+0.1% Tween20 (Sigma P5927) and blocked with 200 μl of 100% Horse Serum, heat inactivated (GIBCO, Cat. No. 26050-088) for 1.5 hours at room temperature. After washing the plates three times with PBS+0.1% Tween, 25 μl of the antibody dilutions were added to the plates for another hour at room temperature with agitation. […] The plates then were washed three times with PBS+0.1% Tween, and 150 μl of 1× read buffer (Meso Scale Discovery, Cat. No. R92TC-1) was added to each well before the plates were analyzed on a Sector® Imager 2400 (Meso Scale Discovery) instrument.

human ErbB3 [2] = biological target: T2, human ErbB3 (human, UniProt P21860 20-1342); assay: cell-based or functional assay
[3] = biological target: T3, recombinant human ErbB3 monomeric protein (cleaved rhErbB3) (human, UniProt P21860 20-643, limits assumed); assay: SPR Biacore 37 C; purified antibody captured on anti-human Fc, cleaved rhErbB3 0.3125-5.0 nM
T3 construct: Monomer made by protease cleavage of the Fc fusion; also called Monomeric ErbB3
Protocol: The analyses were performed at 37° C. using PBS (Invitrogen, Catalog No. 14040-133) containing 0.05% surfactant P20 (Biacore, Catalog No. BR-1000-54) as running buffer.
The antibodies were captured in individual flow cells at a flow rate of […]. Injection time was varied for each antibody to yield an Rₘₐₓ between 30 and 60 RU. […] The dissociation phase was monitored for up to 1200 seconds. The surface was then regenerated with two 60 second injections of Glycine pH 2.25 (made from Glycine pH 2.0 (Biacore, Catalog No. BR-1003-55) and pH 2.5 (Biacore, Catalog No. BR-1003-56)) at […].
The binding affinities and kinetics of certain purified monoclonal antibodies were also determined. To further characterize certain antibodies, the surface plasmon resonance experiments described above were conducted using concentrations of cleaved rhErbB3 between 0.3125 nM and 5.0 nM (a 2-fold serial dilution).

[4] = biological target: T1, recombinant human ErbB3/Fc fusion …; assay: ECL competition; inhibition of NRG1-β1 binding to plate-coated rhErbB3/Fc
Protocol: as §1

[5] = biological target: T3, recombinant human ErbB3 monomeric …; assay: SPR Biacore 37 C; antibody captured on anti-human Fc, cleaved rhErbB3 (monomer) injected
[6] = biological target: T1, recombinant human ErbB3/Fc fusion …; assay: ECL (MSD): NRG1-β1 (0.25 µg/ml) binding to plate-coated rhErbB3/Fc after antibody dilutions; the antibody enhances the NRG1-β1 signal
Protocol: (§2) MA2400 96-well standard binding plates (Meso Scale Discovery, Cat. No. L15XA-6) were coated with 50 μl of 0.5 μg/mL rhErbB3/Fc (R&D systems, Cat. No. 348-RB) in PBS (Invitrogen, Cat. No. 14040-133) for overnight at 4° C. with no agitation. The plates then were washed 3 times with PBS+0.1% Tween20 (Sigma P5927) and blocked with 200 μl of PBS containing 5% BSA (Sera Care Life Sciences, Cat. No. AP-4510-80) for 1.5 hour at room temperature. After washing the plates 3 times with PBS, 25 μl of the antibody dilutions were added to the plates for another hour at room temperature with agitation. […] The plates then were washed 3 times with PBS, and 150 μl of 1× read buffer (Meso Scale Discovery, Cat. No. R92TC-1) was added to each well before the plates were analyzed on a Sector® Imager 2400 (Meso Scale Discovery) instrument.

[7] = biological target: T1, recombinant human ErbB3/Fc fusion …; assay: SPR Biacore T100, 25 C; antibody captured on anti-mouse IgG, rhErbB3-Fc injected
Protocol: Rabbit anti-mouse IgGs (Biacore, Cat. No. BR-1008-38) were immobilized on carboxymethylated dextran CM4 sensor chips (Biacore, Cat. No. BR-1005-34) by amine coupling (BIAcore, Cat. No. BR-1000-50) using a standard coupling protocol according to vendor's instructions. The analyses were performed at 25° C., using PBS (Invitrogen, Cat. No. 14040-133) containing 0.05% surfactant P20 (Biacore, Cat. No. BR-1000-54) as running buffer.
The antibodies were captured in individual flow cells at a flow rate of 10 μl/minute. Injection time was varied for each antibody to yield an Rₘₐₓ between 30 and 60 RU. […] The dissociation phase was monitored for up to 3600 seconds. The surface was then regenerated with two 60-seconds injection of 10 mM Glycine-HCl, pH 1.7 (made from Glycine pH 1.5 (Biacore, Cat. No. BR-1003-54) and pH 2.0 (Biacore, Cat. No. BR-1003-55)) at a flow rate of […].
Kinetic parameters were determined using the kinetic function of the BIAevaluation software (Biacore) with double reference subtraction. Kinetic parameters for each antibody, kₐ (association rate constant), kd (dissociation rate constant) and KD (equilibrium dissociation constant) were determined.

human ErbB3 [8] = biological target: T2, human ErbB3; assay: cell-based or functional assay; remark: listed apart in the source
[9] = biological target: T1, recombinant human ErbB3/Fc fusion …; assay: ECL (MSD) competition: rhErbB3/Fc coated on the plate, antibody dilutions, then NRG1-β1 at 0.25 µg/ml; bound NRG1-β1 detected; remark: listed apart in the source
Protocol: as §2

[10] = biological target: T1, recombinant human ErbB3/Fc fusion …; assay: ECL competition; inhibition of NRG1-β1 binding to plate-coated rhErbB3/Fc; remark: listed apart in the source
Protocol: as §2

Binder | IC50 (read off the curve) [1] [nM] | inhibition of phosphorylation of ErbB3 in exponentially growing SKBR-3 cells (ELISA) (human ErbB3 [2]) [%] | Kd [3] [nM] | koff [3] [s⁻¹] | kon [3] [M⁻¹ s⁻¹] | IC50 [4] [nM] | Kd [5] [nM] | koff [5] [s⁻¹] | kon [5] [M⁻¹ s⁻¹] | EC50 (read off the curve) [6] [nM] | Kd [7] [nM] | koff [7] [s⁻¹] | kon [7] [M⁻¹ s⁻¹] | inhibition of NRG1-β1 induced phosphorylation of Akt in MCF7 and DU145 cells (ELISA) (human ErbB3 [2]) [%] | inhibition of NRG1-β1 induced phosphorylation of ErbB3 in SKBR-3 cells (ELISA, 5 µg/ml antibody) (human ErbB3 [2]) [%] | IC50, NRG1-β1 dependent proliferation of MCF7 cells (MTT) (human ErbB3 [8]) [nM] | IC50 (read off the curve) [9] [nM] | IC50 [10] [nM]
Sh24C05-25 N62S IgG2 (antibody, Humanized, human IgG2/kappa) heavy: QVQLVESGGGLVKPGGSLRLSCAASGFTFSDYAMSWIRQAPGKGLEWVSTISDGGTYTYYPDSVKGRFTISRDNAKNSLYLQMNSLRAEDTAVYYCAREWGDYDGFDYWGQGTLVTVSSASTKGPSVFPLAPCSRSTSESTAALGCLVKDYFPEPVTVSWNSGALTSGVHTFPAVLQSSGLYSLSSVVTVPSSNFGTQTYTCNVDHKPSNTKVDKTVERKCCVECPPCPAPPVAGPSVFLFPPKPKDTLMISRTPEVTCVVVDVSHEDPEVQFNWYVDGVEVHNAKTKPREEQFNSTFRVVSVLTVVHQDWLNGKEYKCKVSNKGLPAPIEKTISKTKGQPREPQVYTLPPSREEMTKNQVSLTCLVKGFYPSDIAVEWESNGQPENNYKTTPPMLDSDGSFFLYSKLTVDKSRWQQGNVFSCSVMHEALHNHYTQKSLSLSPGK light: DIQMTQSPSSLSASVGDRVTITCRASQEISGYLSWFQQKPGKAPKSLIYAASTLDSGVPSRFSGSGSGTDFTLTISSLQPEDFATYYCLQYDSYPYTFGQGTKLEIKRTVAAPSVFIFPPSDEQLKSGTASVVCLLNNFYPREAKVQWKVDNALQSGNSQESVTEQDSKDSTYSLSSTLTLSKADYEKHKVYACEVTHQGLSSPVTKSFNRGEC | ~0.1 | ≥ 50 | 0.12 | 0.00034 | 2.7e+06 | 0.112 | – | – | – | – | – | – | – | – | – | – | – | –
04D01 (antibody, mouse IgG1, kappa, V domains shown, Murine IgG1/kappa, purified from hybridoma; also called anti-hErbB3 monoclonal antibody 04D01) VH: QVQLQQPGAELVRPGTSVKLSCKASGYTFTSHWLHWVKQRPGQGLEWIGVLDPSDFYSNYNQNFKGKATLTVDTSSSTAYMQLSSLTSEDSAVYYCARGLLSGDYAMDYWGQGTSVTVSS VL: DVLMTQIPLSLPVSLGDQASISCRSSQSIVHSNGNTYLEWYLQKPGQSPKSLIYKVSNRFSGVPDRFSGSGSGTDFTLKISRVEAEDLGVYYCFQGSYVPWTFGGGTKLEIKR | – | – | – | – | – | – | – | – | – | – | 0.25 | 9.3e-05 | 380000 | ≥ 80 | ≥ 50 | 0.47 | ~0.1 | 0.223

Continued, values first:

IC50 (read off the curve) [1] [nM] | inhibition of phosphorylation of ErbB3 in exponentially growing SKBR-3 cells (ELISA) (human ErbB3 [2]) [%] | Kd [3] [nM] | koff [3] [s⁻¹] | kon [3] [M⁻¹ s⁻¹] | IC50 [4] [nM] | Kd [5] [nM] | koff [5] [s⁻¹] | kon [5] [M⁻¹ s⁻¹] | EC50 (read off the curve) [6] [nM] | Kd [7] [nM] | koff [7] [s⁻¹] | kon [7] [M⁻¹ s⁻¹] | inhibition of NRG1-β1 induced phosphorylation of Akt in MCF7 and DU145 cells (ELISA) (human ErbB3 [2]) [%] | inhibition of NRG1-β1 induced phosphorylation of ErbB3 in SKBR-3 cells (ELISA, 5 µg/ml antibody) (human ErbB3 [2]) [%] | IC50, NRG1-β1 dependent proliferation of MCF7 cells (MTT) (human ErbB3 [8]) [nM] | IC50 (read off the curve) [9] [nM] | IC50 [10] [nM] | Binder
~0.1 | ≥ 50 | 0.16 | 0.00045 | 2.9e+06 | 0.122 | – | – | – | – | – | – | – | – | – | – | – | – | Sh24C05-25 N62S IgG1 (antibody, Humanized, human IgG1/kappa) heavy: not shown light: DIQMTQSPSSLSASVGDRVTITCRASQEISGYLSWFQQKPGKAPKSLIYAASTLDSGVPSRFSGSGSGTDFTLTISSLQPEDFATYYCLQYDSYPYTFGQGTKLEIKRTVAAPSVFIFPPSDEQLKSGTASVVCLLNNFYPREAKVQWKVDNALQSGNSQESVTEQDSKDSTYSLSSTLTLSKADYEKHKVYACEVTHQGLSSPVTKSFNRGEC
~0.1 | ≥ 50 | 0.074 | 0.00024 | 3.2e+06 | 0.086 | – | – | – | – | – | – | – | – | – | – | – | – | Sh24C05-31 N62S IgG2 (antibody, Humanized, human IgG2/kappa) heavy: QVQLVESGGGLVKPGGSLRLSCAASGFTFSDYAMSWIRQAPGKGLEWVSTISDGGTYTYYPDSVKGRFTISRDNAKNSLYLQMNSLRAEDTAVYYCAREWGDYDGFDYWGQGTLVTVSSASTKGPSVFPLAPCSRSTSESTAALGCLVKDYFPEPVTVSWNSGALTSGVHTFPAVLQSSGLYSLSSVVTVPSSNFGTQTYTCNVDHKPSNTKVDKTVERKCCVECPPCPAPPVAGPSVFLFPPKPKDTLMISRTPEVTCVVVDVSHEDPEVQFNWYVDGVEVHNAKTKPREEQFNSTFRVVSVLTVVHQDWLNGKEYKCKVSNKGLPAPIEKTISKTKGQPREPQVYTLPPSREEMTKNQVSLTCLVKGFYPSDIAVEWESNGQPENNYKTTPPMLDSDGSFFLYSKLTVDKSRWQQGNVFSCSVMHEALHNHYTQKSLSLSPGK light: DIQMTQSPSSLSASVGDRVTITCRASQEISGYLSWYQQKPGKAPKRLIYAASTLDSGVPSRFSGSGSGTEFTLTISSLQPEDFATYYCLQYDSYPYTFGQGTKLEIKRTVAAPSVFIFPPSDEQLKSGTASVVCLLNNFYPREAKVQWKVDNALQSGNSQESVTEQDSKDSTYSLSSTLTLSKADYEKHKVYACEVTHQGLSSPVTKSFNRGEC
~0.1 | ≥ 50 | 0.076 | 0.00027 | 3.5e+06 | 0.124 | 0.076 | 0.00027 | 3.5e+06 | – | – | – | – | – | – | – | – | – | Sh24C05-31 N62S IgG1 (antibody, Humanized, human IgG1/kappa) heavy: not shown light: DIQMTQSPSSLSASVGDRVTITCRASQEISGYLSWYQQKPGKAPKRLIYAASTLDSGVPSRFSGSGSGTEFTLTISSLQPEDFATYYCLQYDSYPYTFGQGTKLEIKRTVAAPSVFIFPPSDEQLKSGTASVVCLLNNFYPREAKVQWKVDNALQSGNSQESVTEQDSKDSTYSLSSTLTLSKADYEKHKVYACEVTHQGLSSPVTKSFNRGEC
– | – | – | – | – | – | – | – | – | ~1 | 0.08 | 2e-05 | 270000 | ≥ 80 | ≥ 50 | 2.28 | – | – | 09D03 (antibody, mouse IgG2b, kappa, V domains shown, Murine IgG2b/kappa, from hybridoma; also called anti-hErbB3 monoclonal antibody 09D03) VH: QVTLKESGPGILRPSQTLSLTCSFSGFSLSTFGLSVGWIRQPSGKGLEWLAHIWWDDDKYYNPALKSRLTISKDTSKNQVFLKIANVDTADTATYYCARIGADALPFDYWGQGTTLTVSS VL: DIVLTQTAPSVPVTPGESVSISCRSSKSLLHSNGNTYLYWFLQRPGQSPQLLIYRMSNLASGVPDRFSGSGSGTAFTLRISRVEAEDVGVYYCMQHLEYPFTFGSGTKLEIKR
